Results from patent US20170320946A1.

Experiments:
[1] = biological target: huTREM-1 expressed as amino-terminal FLAG peptide fusion protein on transfected COS-7 or 293 cells (human) (UniProt Q9NP99); experiment: FACS of 293 cells transiently transfected with TREM-1-FLAG, stained with anti-FLAG mAb M2; isotype-matched control set to the lower quadrant
[2] = biological target: huTREM-2 expressed as amino-terminal FLAG peptide fusion protein on transfected 293 cells (human) (UniProt Q9NZC2); experiment: FACS of 293 cells transiently transfected with TREM-2-FLAG, stained with anti-FLAG mAb M2; isotype-matched control set to the lower quadrant

percentage of cells stained (upper right quadrant) [1]: 21.5%
percentage of cells stained (upper right quadrant) [2]: 17.9%
Substance: ANTI-FLAG mAb M2 (antibody)
